Assay results: patent US20250042973A1 (WUHAN UNIVERSITY, published 2025)

Biological target: the molecule itself
Test: self-association (homodimer) seen on SDS-PAGE / Western blot after nickel affinity purification
Procedure: In a process of Western Blot, Gel block of samples from the Electrophoresis was electro-transferred to NC membrane at 100 V for 90 min. The NC membrane was then washed with TBST for three times, and blocked with 5% skim milk on a shaker for 2 h. After blocking, the NC membrane was then washed with TBST for three times, and incubated with GPER antibody (Invitrogen, PA5-28647) overnight. After that, the NC membrane was then washed with TBST for three times, and incubated with secondary antibody (HRP-labeled Goat Anti-Rabbit IgG, ABclonal, AS014, BR) at room temperature for 3 h, washed with TBST for three times, visualized the result in the dark room with DAB.

B1: recombinant protein of GPER (G protein-coupled estrogen receptor) (receptor)
chain: LSHPLLGTALANGTGELSEHQQYVIGLFLSCLYTIFLFPIGFVGNILILVVNISFREKMTIPDLYFINLAVADLILVADSLIEVFNLHERYYDIAVLCTFMSLFLQVNMYSSVFFLTWMSFDRYIALARAMRCSLFRTKHHARLSCGLIWMASVSATLVPFTAVHLQHTDEACFCFADVREVQWLEVTLGFIVPFAIIGLCYSLIVRVLVRAHRMKKYTCTVCGYIYNPEDGDPDNGVNPGTDFKDIPDDWVCPLCGVGKDQFEEVEEHRGLRPRRQKALRMILAVVLVFFVCWLPENVFISVHLLQRTQPGAAPCKQSFRHAHPLTGHIVNLAAFSNSCLNPLIYSFLGETFRDKLRLYIEQKTNL
notes: The source plasmid is wild-type GPER (pDNR-Dual, BC011634, HsCD00005110); The purified protein is reported as monomer and dimer; also called GPER protein
B1: binds.
